From the supplement of paper PMC7877785
± gives the uncertainty stated by the source.

Assay: self-splicing fitness, log relative to wild type (ln ratio); higher = more splicing; Tetrahymena group I intron in knt gene, E. coli kanamycin selection, DiMSum; sequences stand for … in CUCUCU…GGAGGGAAAAGUUAUCAGGCAUGCACCUGGUAGCUAGUCUUUAAACCAAUAGAUUGCAUCGGUUUAAAAGGCAAGACCGUCAAAUUGCGGGAAAGGGGUCAACAGCCGUUCAGUACCAAGUCUCAGGGGAAACUUUGAGAUGGCCUUGCAAAGGGUAUGGUAAUAAGCUGACGGACAUGGUCCUAACCACGCAGCCAAGUCCUAAGUCAACAGAUCUUCUGUUGAUAUGGAUGCAGUUCACAGACUAAAUGUCGGUCGGGGAAGAUGUAUUCUUCUCAUAAGAUAUAGUCGGACCUCUCCUUAAUGGGAGCUAGCGGAUGAAGUGAUGCAACACUGGAGCCGCUGGGAACUAAUUUGUAUGCGAAAGUAUAUUGAUUAGUUUUGGAGUACUCGUGGUCG
Outline: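 DiMSum derived fitness as the error-weighted combination of fold changes across replicates, kanamycin versus no kanamycin, normalised to wild type. E. coli BL21(DE3) held the library, which randomised all eight P1ex-region intron nucleotides within the knt kanamycin-resistance gene on pET-22b(+). Six replicate transformations grew overnight at 37°C or 30°C on LB agar with or without 25 μg/mL kanamycin, also containing 100 μg/mL carbenicillin, 50 μM IPTG and 0.2% rhamnose, and pooled colonies were amplicon-sequenced on an Illumina HiSeq 2500.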

Sequence	self-splicing fitness (ln) (30 °C)	self-splicing fitness (ln) (37 °C)
UAUUAGCAAUAUUACGAAAG	-2.42 ± 0.37	
UAUUAGCAAUAUUACGAAUA	-0.842 ± 0.38	-0.292 ± 0.38
UAUUAGCAAUAUUACGACUU	-0.468 ± 0.13	-0.537 ± 0.14
UAUUAGCAAUAUUACGAGAG	-3.48 ± 0.26	-3.11 ± 0.29
UAUUAGCAAUAUUACGAUAA	-1.07 ± 0.19	0.628 ± 0.16
UAUUAGCAAUAUUACGAUAC		-1.13 ± 0.24
UAUUAGCAAUAUUACGAUUC	-1.88 ± 0.16	-0.062 ± 0.18
UAUUAGCAAUAUUACGCAUA	-0.754 ± 0.29	-0.355 ± 0.26
UAUUAGCAAUAUUACGCCAA	-1.65 ± 0.2	-1.68 ± 0.23
UAUUAGCAAUAUUACGCCCU	-1.3 ± 0.21	0.526 ± 0.2
UAUUAGCAAUAUUACGCCGA	-2.3 ± 0.31	-0.195 ± 0.28
UAUUAGCAAUAUUACGCCUG	-0.0456 ± 0.13	0.00497 ± 0.16
UAUUAGCAAUAUUACGGCGA	-0.206 ± 0.15	-0.325 ± 0.16
UAUUAGCAAUAUUACGGGCU	-3.47 ± 0.27	-2.3 ± 0.23
UAUUAGCAAUAUUACGGGUU	-2.08 ± 0.13	-1.77 ± 0.2
UAUUAGCAAUAUUACGUAAC	-1.8 ± 0.19	-1.09 ± 0.2
UAUUAGCAAUAUUACGUGCU	-2.12 ± 0.12	-2.04 ± 0.15
UAUUAGCAAUAUUACGUUUA	-1.6 ± 0.21	0.132 ± 0.2
UCAAAGCAAUAUUACGAGUA	-2.07 ± 0.083	-0.678 ± 0.072
UCAAAGCAAUAUUACGAUAU	-3.62 ± 0.23	-2.67 ± 0.18
UCAAAGCAAUAUUACGAUCA	-0.91 ± 0.12	-0.719 ± 0.11
UCAAAGCAAUAUUACGAUCC	-3.21 ± 0.3	-2.34 ± 0.4
UCAAAGCAAUAUUACGCAUA	-2.68 ± 0.17	-1.62 ± 0.16
UCAAAGCAAUAUUACGCCAA	-2.7 ± 0.28	-2.12 ± 0.37

Sequence	self-splicing fitness (ln) (30 °C)	self-splicing fitness (ln) (37 °C)
UCAAAGCAAUAUUACGCCGU	-2.43 ± 0.18	-0.576 ± 0.12
UCAAAGCAAUAUUACGCGGU	-2.75 ± 0.14	-2.97 ± 0.16
UCAAAGCAAUAUUACGCUCG	-0.615 ± 0.081	-0.0673 ± 0.12
UCAAAGCAAUAUUACGCUUA	-2.87 ± 0.14	-2.53 ± 0.17
UCAAAGCAAUAUUACGCUUC	-4.01 ± 0.23	-2.02 ± 0.23
UCAAAGCAAUAUUACGGACU	-3.52 ± 0.3	-2.27 ± 0.25
UCAAAGCAAUAUUACGGAGA	-3.38 ± 0.28	-1.61 ± 0.17
UCAAAGCAAUAUUACGGGUG	-0.366 ± 0.056	0.234 ± 0.074
UCAAAGCAAUAUUACGGUGA	-0.776 ± 0.098	-0.408 ± 0.11
UCAAAGCAAUAUUACGGUUC	-4.38 ± 0.22	-2.5 ± 0.15
UCAAAGCAAUAUUACGUAAG	-1.77 ± 0.08	-0.788 ± 0.1
UCAAAGCAAUAUUACGUUAG	-2.02 ± 0.12	-1.64 ± 0.12
UCAAAGCAAUAUUACGUUAU	-3.43 ± 0.18	-3.37 ± 0.35
UCAAAGCAAUAUUACGUUCG	-1.17 ± 0.087	-0.407 ± 0.12
UCAAAGCAAUAUUACGUUUU	-3.28 ± 0.16	-3.18 ± 0.3
UCACAGCAAUAUUACGAACU	-3.39 ± 0.16	-2.23 ± 0.15
UCACAGCAAUAUUACGAAUU	-4.34 ± 0.22	-2.4 ± 0.16
UCACAGCAAUAUUACGACAA	-1.3 ± 0.13	-0.0758 ± 0.096
UCACAGCAAUAUUACGACAC	-3.44 ± 0.38	-2.71 ± 0.34
UCACAGCAAUAUUACGACAG	-2.15 ± 0.082	-1.47 ± 0.088
UCACAGCAAUAUUACGACCA	-1.89 ± 0.21	0.0251 ± 0.21
UCACAGCAAUAUUACGACGC	-2.07 ± 0.15	-1.03 ± 0.2
UCACAGCAAUAUUACGAUAA	-1.65 ± 0.066	-0.733 ± 0.074
UCACAGCAAUAUUACGAUGU	-4.15 ± 0.29	-1.77 ± 0.17

Sequence	self-splicing fitness (ln) (30 °C)	self-splicing fitness (ln) (37 °C)
UCACAGCAAUAUUACGCCGU	-4.25 ± 0.46	-3.02 ± 0.35
UCACAGCAAUAUUACGCGUG	-2.87 ± 0.14	-2.13 ± 0.14
UCACAGCAAUAUUACGGAGC	-2.68 ± 0.15	-2.04 ± 0.22
UCACAGCAAUAUUACGGCCC	-3.44 ± 0.45	-1.82 ± 0.44
UCACAGCAAUAUUACGGCUA	-1.64 ± 0.095	-0.219 ± 0.077
UCACAGCAAUAUUACGGCUG	-3.35 ± 0.16	-2.96 ± 0.23
UCACAGCAAUAUUACGGGGA	-1.15 ± 0.065	0.015 ± 0.076
UCACAGCAAUAUUACGGUUU	-2.56 ± 0.068	-1.15 ± 0.067
UCACAGCAAUAUUACGUAAA	-2.14 ± 0.069	-1.18 ± 0.084
UCACAGCAAUAUUACGUAGC	-2.87 ± 0.18	-1.34 ± 0.21
UCACAGCAAUAUUACGUAGU	-3.38 ± 0.12	-2.6 ± 0.17
UCACAGCAAUAUUACGUGAA	-2.36 ± 0.1	-1.4 ± 0.1
UCACAGCAAUAUUACGUUUA	-2.53 ± 0.13	-0.819 ± 0.082
UCAGAGCAAUAUUACGAGUU	-2.22 ± 0.2	-0.115 ± 0.27
UCAGAGCAAUAUUACGCAUU	-3.35 ± 0.43	-0.634 ± 0.19
UCAGAGCAAUAUUACGCCCU		-2.21 ± 0.39
UCAGAGCAAUAUUACGCGGU	-4.12 ± 0.33	-3.04 ± 0.32
UCAGAGCAAUAUUACGGACG	-3.67 ± 0.44	-1.58 ± 0.2
UCAGAGCAAUAUUACGGAUU	-3.58 ± 0.19	-2.68 ± 0.23
UCAGAGCAAUAUUACGGCCC	-2.13 ± 0.39	-0.0611 ± 0.34
UCAGAGCAAUAUUACGGCCU	-2.39 ± 0.34	-2.73 ± 0.31
UCAGAGCAAUAUUACGGGAA		-2.4 ± 0.2
UCAGAGCAAUAUUACGGUAA	-3.7 ± 0.47	-1.85 ± 0.41
UCAGAGCAAUAUUACGUACG	-1.96 ± 0.24	-1.96 ± 0.28

Sequence	self-splicing fitness (ln) (30 °C)	self-splicing fitness (ln) (37 °C)
UCAGAGCAAUAUUACGUACU	-3.35 ± 0.34	-2.24 ± 0.3
UCAGAGCAAUAUUACGUCCA	-3.75 ± 0.47	-2.25 ± 0.39
UCAGAGCAAUAUUACGUCUG	-2.88 ± 0.12	-2.35 ± 0.14
UCAGAGCAAUAUUACGUGCU	-3.09 ± 0.2	-3.07 ± 0.28
UCAGAGCAAUAUUACGUGUC	-4.13 ± 0.31	-2.63 ± 0.23
UCAGAGCAAUAUUACGUUCU	-3.86 ± 0.22	-2.47 ± 0.25
UCAGAGCAAUAUUACGUUGG	-3.05 ± 0.21	-2.9 ± 0.35
UCAUAGCAAUAUUACGACCG	-1.36 ± 0.16	-0.325 ± 0.22
UCAUAGCAAUAUUACGAGUA	-3.06 ± 0.23	0.0724 ± 0.12
UCAUAGCAAUAUUACGCAGG	-3.24 ± 0.17	-3.01 ± 0.17
UCAUAGCAAUAUUACGCGCC	-3.62 ± 0.44	-1.88 ± 0.33
UCAUAGCAAUAUUACGGAAU	-3.32 ± 0.33	-3.09 ± 0.47
UCAUAGCAAUAUUACGGCCU	-3.03 ± 0.17	-2.48 ± 0.31
UCAUAGCAAUAUUACGGCGU	-3.73 ± 0.14	-3.17 ± 0.19
UCAUAGCAAUAUUACGGCUG	-1.33 ± 0.11	-1.12 ± 0.14
UCAUAGCAAUAUUACGGCUU		-1.48 ± 0.26
UCAUAGCAAUAUUACGGGAU	-3.11 ± 0.18	-2.87 ± 0.28
UCAUAGCAAUAUUACGGGCA	-1.29 ± 0.11	-0.42 ± 0.1
UCAUAGCAAUAUUACGGUUU	-3.72 ± 0.28	-1.92 ± 0.22
UCAUAGCAAUAUUACGUACA	-2.15 ± 0.14	-1.46 ± 0.12
UCCAAGCAAUAUUACGAACG	-2.64 ± 0.15	-1.62 ± 0.23
UCCAAGCAAUAUUACGACCU	-2.9 ± 0.26	-1.95 ± 0.26
UCCAAGCAAUAUUACGACGG	-0.354 ± 0.076	0.164 ± 0.1
UCCAAGCAAUAUUACGAGUA	-0.957 ± 0.099	-0.576 ± 0.084
